In US20240238445A1, “INHIBITORS AND USES THEREOF” (NEURACLE SCIENCE CO., LTD., priority 2021, published 2024):

Experiments:
[1] = molecular target: T1, FAM19A5 protein (Homo sapiens, UniProt Q7Z5A7); assay: ELISA binding of recombinant FAM19A5 to coated hFc-conjugated LRRC4 family ectodomains, fragments or synthetic peptides; conditions: coated 100 nM/well, FAM19A5 up to 10 nM
Procedure: Next, to confirm the above co-immunoprecipitation results, an ELISA assay was used to measure the binding of the FAM19A5 protein to either the full-length ectodomain of members of LRRC4 protein family or various LRRC4B ectodomain protein fragments. Specifically, an ELISA plate was coated with one of the following LRRC4B ectodomain protein, which was conjugated to human Fc (100 nM/well): (1) full-length ectodomain of LRRC4 protein (amino acid residues 39-527 of SEQ ID NO: 1) (SEQ ID NO: 4); (2) full-length ectodomain of LRRC4B protein (amino acids 36-576 of SEQ ID NO: 2; i.e., construct #7 in Table 6) (SEQ ID NO: 5); (3) full-length ectodomain of LRRC4C protein (amino acids 45-527 of SEQ ID NO: 3) (SEQ ID NO: 6); (4) LRRC4B ectodomain fragment (amino acids 453-576 of SEQ ID NO: 2; i.e., construct #11 in Table 6) (SEQ ID NO: 7); (5) LRRC4B ectodomain fragment (amino acids 484-576 of SEQ ID NO: 2; i.e., construct #12 in Table 6) (SEQ ID NO: 8); (6) LRRC4B ectodomain fragment (amino acids 482-576 of SEQ ID NO: 2) (SEQ ID NO: 9); (7) LRRC4B ectodomain fragment (amino acids 482-497 of SEQ ID NO: 2) (SEQ ID NO: 10); and (8) LRRC4B ectodomain fragment (amino acids 498-576 of SEQ ID NO: 2; i.e., construct #13 in Table 6) (SEQ ID NO: 11). Then, recombinant FAM19A5 proteins (0.005, 0.01, 0.025, 0.05, 0.1, 0.25, 0.5, 1, 2.5, 5, and 10 nM) were added to the relevant wells, and the plates were incubated at 37° C. for 1 hour. Afterwards, the amount of LRRC4B-bound FAM19A5 protein was detected using HRP-conjugated anti-FAM19A5 (1-65) antibody.
As further confirmation, three synthetic polypeptides comprising amino acids 484-497 of SEQ ID NO: 2 (i.e., YTYFTTVTVETLET; SEQ ID NO: 65) were constructed: (1) FB-16 (GYTYFTTVTVETLETQ; SEQ ID NO: 17), (2) FB-20 ([…]; SEQ ID NO: 18), and (3) FB-28 ([…]; SEQ ID NO: 19). The peptides differed in their total length. The ability of these polypeptides to bind to recombinant FAM19A5 protein was assessed using an ELISA assay as described above.

[2] = system: mouse primary cortical neurons; assay: Neurite growth of mouse primary cortical neurons in vitro; format: cell-based; conditions: for neurite growth / neurite outgrowth: treated days 1 and 2, assessed day 3, anti-beta-tubulin III, LRRC4B fragment 0.006 to 60 nM, versus control
Procedure: Next, primary cortical neurons (day 1 postnatal) were cultured in vitro with varying concentrations (0.006 to 60 nM) of the LRRC4B (453-576) protein fragment (i.e., amino acid residues 453-576 of SEQ ID NO: 2; SEQ ID NO: 7), and then at day 3 post-initial culture, the effect on neurite growth was assessed by immunostaining the cells with anti-beta-tubulin III antibody. Cells cultured with DMSO (“Veh”) were used as control.
Mouse hippocampal neurons were treated with LRRC4B peptides at 1 and 2 DIV to determine neurite growth. It was measured by using 3 different parameters, which are total neurites length, number of primary and secondary neurites. After the neurons were stained with beta-tubulin III at 3 DIV, neurites length and branch points were measured using Fiji (Image J, NIH, Bethesda). Individual neurons were selected by hand and these parameters were counted using the Simple neurite tracer plugin. Mouse spinal motor neurons sampled at postnatal day 1 were treated with 10 nM of NS101 and LRRC4B-peptides (dFB-dWY-JM31 and dFB-DY-JM31) at 1 and 2 DIV and immunostained with Tau-5 antibody at 3 DIV. Total neurite length and number of somas in images were measured by Neurphology Image J plugin.

[3] = molecular target: T1, FAM19A5 protein; assay: Co-immunoprecipitation of FLAG-tagged LRRC4 family deletion constructs/fragments with recombinant FAM19A5 in HEK293 cells; format: binding; conditions: HEK293 cells expressing FLAG-tagged construct, recombinant FAM19A5 1 μM 30 minutes; IP anti-FLAG, blot anti-FAM19A5 (3-2)
Outline: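 HEK293 cells expressing FLAG-tagged LRRC4B deletion constructs or LRRC4C (aa 354-527) / LRRC4 (aa 353-527) fragments were treated with 1 μM recombinant FAM19A5 for 30 min. Lysates immunoprecipitated with anti-FLAG and immunoblotted with anti-FLAG and anti-FAM19A5 (3-2) antibodies.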

[4] = day 3, compared to the control group

T1 sequence (Q7Z5A7 44-132): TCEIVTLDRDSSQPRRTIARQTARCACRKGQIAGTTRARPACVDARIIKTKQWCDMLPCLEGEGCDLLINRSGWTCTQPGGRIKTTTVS

| Molecule | binding to FAM19A5 protein (ELISA, in words) [1] | neurite growth / neurite outgrowth [2] | binding to FAM19A5 protein (co-immunoprecipitation) [3] | neurite length [2, 4] | number of branching points [2, 4] | number of primary and secondary neurites [2, 4] |
| --- | --- | --- | --- | --- | --- | --- |
| GYTYFTTVTVETLETQPGEE [FB-20] | able to bind to recombinant FAM19A5 protein with high affinity | Increased neurite outgrowth |  |  |  |  |
| LRRC4B (498-576): LRRC4B ectodomain fragment, amino acids 498-576 of SEQ ID NO: 2 (protein) QPGEEALQPRGTEKEPPGPTTDGVWGGGRPGDAAGPASSSTTAPAPRSSRPTEKAFTVPITDVTENALKDLDDVMKTTK | failed to bind to FAM19A5 |  | not able to do so |  |  |  |
| LRRC4B (453-576): LRRC4B ectodomain fragment, amino acids 453-576 of SEQ ID NO: 2; FLAG-tagged or hFc-fused (protein, FLAG tag or human Fc, FLAG-tagged or hFc-fused) VSAVDPVAAGGTGSGGGGPGGSGGVGGGSGGYTYFTTVTVETLETQPGEEALQPRGTEKEPPGPTTDGVWGGGRPGDAAGPASSSTTAPAPRSSRPTEKAFTVPITDVTENALKDLDDVMKTTK |  | increased neurite growth in a dose-dependent manner | able to bind to the FAM19A5 protein with varying degree | increased neurite length | increased number of branching points | increased number of primary and secondary neurites |
